“And” between values parts separate entries of the source, which are not always exact repeats. Identical values can stand only once. “Also recorded” adds a separate entry of the source.
Tests used:
[1] = test system: MUC16 expressing mouse ovarian and pancreatic cancer xenograft models; test: Mouse xenograft anti-tumor activity; format: in vivo; settings: single agent
[2] = DMUC5754A pharmacokinetics in patients (total antibody ELISA; acMMAE and unconjugated MMAE LC/MS/MS); format: in vivo, human
From the text: Pharmacokinetics (PK) of DMUC5754A was characterized following q3w or qlw dosing schedules in both OC and PC patients. Serum or plasma samples at multiple pre-specified time points were quantified for three analytes (unconjugated MMAE, DMUC5754A total antibody, and DMUC5754A conjugate (measured as antibody-conjugated MMAE, acMMAE)). Total antibody (antibody with MMAE-to-antibody ratio equal or greater than zero, including conjugated, partially deconjugated and fully deconjugated antibody) were analyzed using validated enzyme-linked immunosorbent assay methods with the minimum quantifiable concentration of 60 ng/mL. Plasma acMMAE and unconjugated MMAE were determined by using validated LC/MS/MS assays. The lower limit of quantitation (LLOQ) for the acMMAE assay and unconjugated MMAE were 0.359 ng/mL and 0.0359 ng/mL in human plasma, respectively. PK data after Cycle 1, Day 1 dose of DMUC5754A were analyzed with non-compartmental analysis using Phoenix WinNonlin 6.2 (Certara, L. P.), and further evaluated based on dose regimen and cancer type.

[3] = test system: unresectable pancreatic cancer; test: Clinical activity of DMUC5754A (RECIST) in pancreatic cancer patients; format: in vivo, human; settings: PC patients, 2.4 mg/kg q3w, 10 patients treated
Procedure: This multicenter, open-label, dose-escalation study was designed to identify the recommended Phase II dose (RP2D) of DMUC5754A in patients with platinum-resistant OC or unresectable pancreatic cancer. In the single-agent dose escalation stage utilizing a 3+3 enrollment scheme, patients were given intravenous DMUC5754A (Genentech Inc.) 0.3-3.2 mg/kg every 3 weeks (q3w) to evaluate the safety, tolerability, and pharmacokinetics of DMUC5754A. Following determination of the maximum tolerated dose (MTD), dose-expansion cohorts were enrolled at the RP2D of 2.4 mg/kg to further characterize the safety and preliminary clinical efficacy of DMUC5754A.
PC patients had histologic documentation of incurable, locally advanced, or metastatic disease for which no standard therapy exists, consisting of unresectable pancreatic ductal adenocarcinoma (i.e., patients with locally advanced or metastatic disease who are not considered eligible for surgical resection with curative intent), including recurrence of previously-resected disease considered unresectable with curative intent. […]
Objective response rate was estimated only for patients with disease that was measurable by RECIST guidelines. Objective response is defined as a complete or partial response, as determined by investigator assessment and confirmed by repeat assessments ≥4 weeks after initial documentation. […]

[4] = Serum anti-therapeutic antibody (ATA) bridging antibody ELISA; format: in vivo, human; settings: patients; minimal impact on the exposure
Procedure: Serum anti-therapeutic antibody (ATA) samples were collected from all treated patients and were analyzed using a validated bridging antibody ELISA. Positive antibody responses were further characterized by competitive binding to determine if the response was primarily directed against the antibody or the linker-drug portion of the ADC.

[5] = test system: recombinant human MUC16 extracellular domain; test: Binding to recombinant human MUC16 extracellular domain
[6] = Cycle 1, 2.4 mg/kg q3w, OC (n = 29), Mean [SD]
[7] = Cycle 1, 2.4 mg/kg q3w, PC (n = 10), Mean [SD]
[8] = q1w 1st dose, 0.8 mg/kg, OC, N 3
[9] = q1w 1st dose, 1.1 mg/kg, OC, N 7
[10] = q1w 1st dose, 1.4 mg/kg, OC, N 6
[11] = q1w 1st dose, 1.4 mg/kg, PC, N 1
[12] = q1w 1st dose, 1.6 mg/kg, OC, N 4
[13] = q3w 1st cycle, 0.3 mg/kg, OC, N 3
[14] = q3w 1st cycle, 0.6 mg/kg, OC, N 3
[15] = q3w 1st cycle, 1.2 mg/kg, OC, N 3
[16] = q3w 1st cycle, 1.8 mg/kg, OC, N 3
[17] = q3w 1st cycle, 2.4 mg/kg, OC, N 29
[18] = q3w 1st cycle, 2.4 mg/kg, PC, N 10
[19] = q3w 1st cycle, 3.2 mg/kg, OC, N 3

B1: DMUC5754A: antibody-drug conjugate: humanized IgG1 anti-MUC16 monoclonal antibody and MMAE, linked through protease labile linker maleimidocaproyl-valine-citrulline-p-aminobenzyloxycarbonyl (conjugate, chains of the INN, looked up)
VH: EVQLVESGGGLVQPGGSLRLSCAASGYSITNDYAWNWVRQAPGKGLEWVGYISYSGYTTYNPSLKSRFTISRDTSKNTLYLQMNSLRAEDTAVYYCARWTSGLDYWGQGTLVTVSS
VL: DIQMTQSPSSLSASVGDRVTITCKASDLIHNWLAWYQQKPGKAPKLLIYGATSLETGVPSRFSGSGSGTDFTLTISSLQPEDFATYYCQQYWTTPFTFGQGTKVEIK
modifications: MMAE via mc-vc-PABC linker
- anti-tumor activity [1]: potent and selective single agent anti-tumor activity
- acMMAE CL [2, 6]: 1.06 ± 0.35 mL/h/kg
- acMMAE Vss [2, 6]: 82.1 ± 21.1 mL/kg
- acMMAE t1/2 [2, 6]: 5.01 ± 1.45 days
- acMMAE Vss [2, 7]: 94.6 [32.4] mL/kg
- acMMAE t1/2 [2, 7]: 5.42 [1.91] day
- systemic unconjugated MMAE exposure, fold less than acMMAE exposure ([2]; human, in vivo): approximately 100 fold
- Total Antibody AUCinf [2, 8]: 33.2 µg·days/mL
- Total Antibody Cmax [2, 8]: 13000 ng/mL
- acMMAE AUCinf [2, 8]: 386 ng·days/mL
- acMMAE Cmax [2, 8]: 227 ng/mL
- Unconjugated MMAE Cmax ([2]; q1w 1st dose, 0.8 mg/kg, OC, n = 2): 1.24 ng/mL
- Total Antibody AUCinf [2, 9]: 56.1 µg·days/mL
- Total Antibody Cmax [2, 9]: 17700 ng/mL
- Unconjugated MMAE Cmax [2, 9]: 3.23 ng/mL
- acMMAE Cmax [2, 9]: 301 ng/mL
- acMMAE AUCinf ([2]; q1w 1st dose, 1.1 mg/kg, OC, n = 6): 612 ng·days/mL
- Total Antibody AUCinf [2, 10]: 73.0 µg·days/mL
- Total Antibody Cmax [2, 10]: 23900 ng/mL
- Unconjugated MMAE Cmax [2, 10]: 3.73 ng/mL
- acMMAE Cmax [2, 10]: 449 ng/mL
- acMMAE AUCinf ([2]; q1w 1st dose, 1.4 mg/kg, OC, n = 5): 813 ng·days/mL
- Total Antibody AUCinf [2, 11]: 55.7 µg·days/mL
- Total Antibody Cmax [2, 11]: 17300 ng/mL
- Unconjugated MMAE Cmax [2, 11]: 7.59 ng/mL
- acMMAE AUCinf [2, 11]: 542 ng·days/mL
- acMMAE Cmax [2, 11]: 204 ng/mL
- Total Antibody AUCinf [2, 12]: 82.3 µg·days/mL
- Total Antibody Cmax [2, 12]: 29700 ng/mL
- Unconjugated MMAE Cmax [2, 12]: 5.75 ng/mL
- acMMAE AUCinf [2, 12]: 957 ng·days/mL
- acMMAE Cmax [2, 12]: 539 ng/mL
- Total Antibody Cmax [2, 13]: 6650 ng/mL
- Unconjugated MMAE AUCinf [2, 13]: 4.33 ng·days/mL
- Unconjugated MMAE Cmax [2, 13]: 0.675 ng/mL
- acMMAE AUCinf [2, 13]: 135 ng·days/mL
- acMMAE Cmax [2, 13]: 93.3 ng/mL
- Total Antibody AUCinf ([2]; q3w 1st cycle, 0.3 mg/kg, OC, n = 2): 13.1 µg·days/mL
- Total Antibody AUCinf [2, 14]: 29.5 µg·days/mL
- Total Antibody Cmax [2, 14]: 16600 ng/mL
- Unconjugated MMAE AUCinf [2, 14]: 10.3 ng·days/mL
- Unconjugated MMAE Cmax [2, 14]: 2.03 ng/mL
- acMMAE AUCinf [2, 14]: 310 ng·days/mL
- acMMAE Cmax [2, 14]: 226 ng/mL
- Total Antibody AUCinf [2, 15]: 81.8 µg·days/mL
- Total Antibody Cmax [2, 15]: 22500 ng/mL
- Unconjugated MMAE AUCinf [2, 15]: 19.2 ng·days/mL
- Unconjugated MMAE Cmax [2, 15]: 2.84 ng/mL
- acMMAE AUCinf [2, 15]: 715 ng·days/mL
- acMMAE Cmax [2, 15]: 337 ng/mL
- Total Antibody AUCinf [2, 16]: 106.0 µg·days/mL
- Total Antibody Cmax [2, 16]: 35500 ng/mL
- Unconjugated MMAE AUCinf [2, 16]: 33.1 ng·days/mL
- Unconjugated MMAE Cmax [2, 16]: 4.7 ng/mL
- acMMAE AUCinf [2, 16]: 1050 ng·days/mL
- acMMAE Cmax [2, 16]: 618 ng/mL
- Total Antibody AUCinf [2, 17]: 178.0 µg·days/mL
- Total Antibody Cmax [2, 17]: 42200 ng/mL
- Unconjugated MMAE Cmax [2, 17]: 6.77 ng/mL
- acMMAE AUCinf [2, 17]: 1850 ng·days/mL
- acMMAE Cmax [2, 17]: 860 ng/mL and 860 [216] ng/mL
- Unconjugated MMAE AUCinf ([2]; q3w 1st cycle, 2.4 mg/kg, OC, n = 28): 55.5 ng·days/mL
- Total Antibody AUCinf [2, 18]: 167.0 µg·days/mL
- Total Antibody Cmax [2, 18]: 38900 ng/mL
- Unconjugated MMAE AUCinf [2, 18]: 63.6 ng·days/mL
- Unconjugated MMAE Cmax [2, 18]: 7.7 ng/mL
- acMMAE AUCinf [2, 18]: 1680 ng·days/mL
- acMMAE Cmax [2, 18]: 737 ng/mL and 737 [115] ng/mL
- Total Antibody AUCinf [2, 19]: 324.0 µg·days/mL
- Total Antibody Cmax [2, 19]: 71400 ng/mL
- Unconjugated MMAE Cmax [2, 19]: 20 ng/mL
- acMMAE AUCinf [2, 19]: 3380 ng·days/mL
- acMMAE Cmax [2, 19]: 1220 ng/mL
- Unconjugated MMAE AUCinf ([2]; q3w 1st cycle, 3.2 mg/kg, OC, n = 1): 111 ng·days/mL
- increase of exposure of acMMAE or total antibody (Cmax or AUCinf, Cycle 1) with dose ([2]; q3w and q1w cohorts, 0.3-3.2 mg/kg, nonlinear PK): not dose proportional
- radiographic responses [3]: No patients; also recorded: no radiologic responses
- immunogenicity rate [4]: 14.1%
- binding affinity [5]: high affinity
